# Measured values as given in patent US20120207676 (published 2012).
# Molecular target: T1, Neurotensin receptor NTS1 (HT29 cells/membranes) (human, UniProt P30989)
# Assay: competition, HT29 membranes
# T1 sequence (P30989 whole entry): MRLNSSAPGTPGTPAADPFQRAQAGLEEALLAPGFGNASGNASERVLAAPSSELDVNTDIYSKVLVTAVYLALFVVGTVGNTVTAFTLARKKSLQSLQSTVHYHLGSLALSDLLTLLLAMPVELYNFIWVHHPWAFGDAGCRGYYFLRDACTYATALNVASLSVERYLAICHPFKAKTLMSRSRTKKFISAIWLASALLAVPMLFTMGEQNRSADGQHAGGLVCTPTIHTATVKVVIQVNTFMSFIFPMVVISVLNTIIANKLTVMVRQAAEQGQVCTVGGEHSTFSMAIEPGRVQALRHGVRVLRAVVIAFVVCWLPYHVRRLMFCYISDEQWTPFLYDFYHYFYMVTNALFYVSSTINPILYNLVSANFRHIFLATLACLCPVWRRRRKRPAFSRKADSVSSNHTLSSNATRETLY
row,Ki [nM],Binder
1,2.24,"KPRRPYIL (not fully specified; N-methylated Pro7-Arg8 bond, Tle12; DTPA(In) at Lys6) [DTPA(In)-NT-20.3]"
2,0.16,"KPRRPYIL (NT(6-13) analogue, N-methylated Pro7-Arg8 bond, Tle12) [NT-20.3]"

# Molecular target: T1, Neurotensin receptor NTS1 (HT29 …)
# Assay: competition, HT29 cells
row,IC50 [nM],Binder
1,15.9,"KPRRPYIL (not fully specified; N-methylated Pro7-Arg8 bond, Tle12; DTPA(In) at Lys6) [DTPA(In)-NT-20.3]"
2,2.2,"KPRRPYIL (NT(6-13) analogue, N-methylated Pro7-Arg8 bond, Tle12) [NT-20.3]"

# Further lines, the binder ahead of its results:
row,Binder,IC50 [nM]
1,"KPRRPYIL (not fully specified; N-methylated Pro7-Arg8 bond, Tle12; DOTA(Y) at Lys6) [DOTA(Y)-NT-20.3]",7
2,"KPRRPYIL (not fully specified; N-methylated Pro7-Arg8 bond, Tle12; DOTA(Ga) at Lys6) [DOTA(Ga)-NT-20.3]",13.9
3,"KPRRPYIL (not fully specified; N-methylated Pro7-Arg8 bond, Tle12; DOTA(In) at Lys6) [DOTA(In)-NT-20.3]",14.9
